Reference: publication PMC10783487 (Nucleic Acids Research, 2023)

Target: the molecule itself
Assay: crystal structure

B1: Thermoanaerobacter brockii Can2 E341A mutant (TbrCan2^E341A), catalytically inactive (enzyme)
chain: MNEKVLVLIVGTNPLPNYVVGSHLKEKYDKFVLIYSEKNDKINQNSTYDYAKKLKEHLNLNDKCIFLPLSDVSNSEKIINDLREKFPSEDFVEVHLNYTGGTKTMVVHIYNFLKEKFKNNKIKFEGSYLDARDYKLVYDYSEEAISLKDTIKIDINTLLSIHLYEDIHFEFYDTYSYKQKFVDSFDKISQEIEKAIKDDKGEDFVKWLEDPFRKIFKGENKLLEKTAKFKKHIEKLLKDNDSSPIVKFNEKTPQFIWDILNAFPEGKKLNDGQKLWIPDDKITNDNLSSRVKDTVEFLNGKWFEWYVYSQIKSELLDRKLKEGEHFGISLKAQKKDSPYFALDIFLINGYQLIGISLTTSSTRELCKLKGFEVIHRVRQIGGDESKAILITGMDKSKTEDLQKDLAYETGSTQKRFVVFGIDDWADIGSKICEEVFK
In the case of B1, the “stoichiometry N” value is reported as 2.
